In article PMC5552905, “Mechanisms of peptide sex pheromone regulation of conjugation in Enterococcus faecalis” (MicrobiologyOpen, 2017):
“Also recorded” adds a separate entry of the source. Where two headings read alike, the source gives them in different places.

What was measured:
[1] = system: LT DNA (XBS1 and XBS2 operator sites), P Q promoter region; assay type: binding, Enterococcus faecalis (plasmid pCF10); details: LT DNA 8 fmol; PrgX 38-568 nmol L^−1 preincubated 5 min at room temperature with 40 nmol L^−1 peptide (C, I)
Description: (§1) The LT DNA template containing XBS1 and XBS2 sites (LT DNA, pCF10 sequence from nt 8029 to nt8185 (Hirt et al., 2005)) was PCR amplified from pCF10 using primers as described in. The XBS1 DNA template only has XBS1 site (pCF10 sequence 8029–8131nt) was made by annealing oligos ‐129/‐47‐F (5′[…] 3′) and −129/−47R (5′[…] 3′) to obtain double‐stranded DNA. The XBS2 DNA template only has the XBS2 site (pCF10 sequence from 8109 to 8290; −66 to +114 relative to the prgQ transcription initiation site), and was PCR amplified from pCF10 using primers as described in Caserta et al., 2012. In DNA templates with 5‐bp or 10‐bp insertions, sequence GTACC or […] was inserted between XBS1 and XBS2 sites and at a position of 6‐bp after the XBS1 site. DNA probes were labeled at the 3′‐ends with DIG‐11‐ddUTP using the DIG Gel Shift kit (Roche) by following the manufacturer's instructions. EMSA assays were performed in 20 μl reactions: DIG‐labeled DNA, purified proteins, 1 μg of poly‐[d(A‐T)], 0.1 μg of poly‐L‐lysine, 1 × reaction buffer (20 mmol L^−1 Tris‐HCl, pH 7.9, 0.1 mol L^−1 NaCl, 0.1 mmol L^−1 EDTA, 10% glycerol, 0.01 mol L^−1 MgCl2). The reactions were incubated at room temperature for 15 min and loaded onto 5% polyacrylamide gels in 1 × TBE buffer (Tris, Borate, EDTA, pH 7.9). After electrophoresis at 100 V for 1.5 h, the DNA–protein complexes and DNA probes were electrotransferred onto a nylon membrane (Roche) at 6 V for 2 h using the GENIE electrophoretic blotter (Idea Scientific). DIG‐labeled DNA fragments were visualized by an enzyme immunoassay (DIG Gel Shift Kit, Roche) following the manufacturer's instructions. […] For the experiments reported here the powdered form of the peptides were initially solubilized in pure DMF at 0.5 mg/ml, and then diluted 10‐fold in KPBS for use as a working stock solution, which was diluted into the EMSA reactions to a final peptide concentration of 40 nmol L^−1.
EMSA assays were performed using 8 fmol of digoxigenin‐labeled LT DNA probes with increasing amounts of PrgX protein. PrgX was preincubated for 5‐min at room temperature with 40 nmol L^−1 of C (a) or I (b) before adding LT DNA. PrgX concentrations: lanes 2 and 6: 38 nmol L^−1; lanes 3 and 7: 76 nmol L^−1; lanes 4 and 8: 190 nmol L^−1; lanes 5 and 9: 568 nmol L^−1. (c) Cartoon showing the predicted products formed by binding PrgX to LT DNA.

[2] = system: +5 probe (5 bp inserted between XBS1 and XBS2 sites)
Description: (§2) The LT DNA template containing XBS1 and XBS2 sites (LT DNA, pCF10 sequence from nt 8029 to nt8185 (Hirt et al., 2005)) was PCR amplified from pCF10 using primers as described in. The XBS1 DNA template only has XBS1 site (pCF10 sequence 8029–8131nt) was made by annealing oligos ‐129/‐47‐F (5′[…] 3′) and −129/−47R (5′[…] 3′) to obtain double‐stranded DNA. The XBS2 DNA template only has the XBS2 site (pCF10 sequence from 8109 to 8290; −66 to +114 relative to the prgQ transcription initiation site), and was PCR amplified from pCF10 using primers as described in Caserta et al., 2012. In DNA templates with 5‐bp or 10‐bp insertions, sequence GTACC or […] was inserted between XBS1 and XBS2 sites and at a position of 6‐bp after the XBS1 site. DNA probes were labeled at the 3′‐ends with DIG‐11‐ddUTP using the DIG Gel Shift kit (Roche) by following the manufacturer's instructions. EMSA assays were performed in 20 μl reactions: DIG‐labeled DNA, purified proteins, 1 μg of poly‐[d(A‐T)], 0.1 μg of poly‐L‐lysine, 1 × reaction buffer (20 mmol L^−1 Tris‐HCl, pH 7.9, 0.1 mol L^−1 NaCl, 0.1 mmol L^−1 EDTA, 10% glycerol, 0.01 mol L^−1 MgCl2). The reactions were incubated at room temperature for 15 min and loaded onto 5% polyacrylamide gels in 1 × TBE buffer (Tris, Borate, EDTA, pH 7.9). […]

[3] = system: +10 probe (10 bp inserted between XBS1 and XBS2 sites); assay type: binding, Enterococcus faecalis (plasmid pCF10)
Description: as §2

[4] = system: P Q (prgQ promoter) lacZ reporter; test: β-galactosidase assay of P Q-lacZ reporter (pBK2, pBK2 + 5, pBK2 + 10) in E. faecalis; assay type: cell-based, Enterococcus faecalis; details: 10 ng/ml of C, 30 min at 37°C, PrgX in trans from pCF10, one experiment representative of three
Method: To construct plasmids pBK2 + 5 and pBK2 + 10, the intergenic region between prgQ and prgX was excised from plasmids pBKAdd5 and pBKAdd10 and was cloned into pBK2 using enzymes XhoI and BamHI. Plasmids pBKAdd5 and pBKAdd10 (have the 5‐bp and 10‐bp sequence inserted between XBS1 and XBS2 sites (Kozlowicz, 2005).
E. faecalis cultures were grown overnight in M9‐YEG broth at 37°C with selective antibiotics. Cultures were then diluted 1:10 in fresh medium and grown for 90 min at 37°C. For induction, a final concentration of 10 ng/ml of C was added and cells were incubated for additional 30 min at 37°C. A modified Miller assay was performed as previously described (Kozlowicz, Bae, & Dunny, 2004).
To examine the effects of looping in vivo, we introduced the +5 and +10 base pair insertions between XBS1 and XBS2 sites on the reporter plasmid pBK2, which has a pheromone‐inducible lacZ reporter gene fused downstream from P Q. This enables transcription from P Q to be monitored by measuring β‐galactosidase activity in cell extracts. We transformed these constructs into either OG1Sp or OG1Sp/pCF10 (to provide PrgX protein in trans) and the resulting strains were assayed for β‐galactosidase production in the presence or absence of C.
Figure 4 Expression of β‐galactosidase from E. faecalis cells containing pBK2, pBK2 + 5, and pBK2 + 10. […]

[5] = system: LT DNA (containing XBS1 and XBS2 sites); assay type: binding, Enterococcus faecalis (plasmid pCF10)
Description: as §1

LT DNA (prgQ promoter) = assay type: binding, Enterococcus faecalis (plasmid pCF10)
Description: as §1

[6] = system: B2 m1 DNA probe (XBS2 sequence changed); test: EMSA: PrgX and RNAP binding to B2 m1 probe (mutated XBS2); set-up: species or system Enterococcus faecalis (plasmid pCF10); details: PrgX 18, 54 nmol L^−1; RNAP 200, 240 nmol L^−1; RT, 15 min
Description: as §2

P Q (prgQ promoter) = details: purified PrgX, no peptide, ref Caserta et al., 2012, cited from earlier work
Description: The target of PrgX‐peptide‐mediated regulation is the prgQ promoter (P Q), which controls expression of the majority of factors involved in pCF10 conjugation. PrgX binds specifically to two operator sites (XBS1 and XBS2) in the P Q region between prgX and prgQ. Because the lower‐affinity XBS2 site overlaps PQ, occupancy of XBS2 by PrgX could impede RNA polymerase binding to the promoter. Based on genetic and structural data, it was proposed that pairs of PrgX dimers could bind to XBS1 and XBS2, with the intervening DNA forming a loop that is stabilized by protein–protein interactions between t ... || It is interesting to consider transcription regulation in the pCF10 system by PrgX in relation to other well‐studied bacterial transcription factors. Many of the canonical transcription factors such as LacI are present in very low concentrations, and are modulated by low molecular weight ligands (co‐repressors, etc.) that are generally more abundant (Muller‐Hill, 1998). In contrast, wild‐type E. faecalis cells carrying pCF10 contain a large excess of PrgX (~15‐fold ratio of X dimers/XBSs) (Caserta et al., 2012), while the extracellular (and probably intracellular) concentrations of the peptide ...

[7] = system: XBS1 and XBS2 operator sites; details: apo-PrgX, ref Bae et al., 2002, cited from earlier work
Description: We determined effects of C and I on PrgX‐DNA binding using in vitro electrophoretic mobility shift assays (EMSAs).

B1: PrgX: master transcription regulator PrgX, a repressor of transcription of the prgQ operon; apo form is a dimer in solution (protein)
chain: MFKIGSVLKQIRQELNYHQIDLYSGIMSKSVYIKVEADSRPISVEELSKFSERLGVNFFEILNRAGMNTKSVNETGKEKLLISKIFTNPDLFDKNFQRIEPKRLTSLQYFSIYLGYISIAHHYNIEVPTFNKTITSDLKHLYDKRTTFFGIDYEIVSNLLNVLPYEEVSSIIKPMYPIVDSFGKDYDLTIQTVLKNALTISIMNRNLKEAQYYINQFEHLKTIKNISINGYYDLEINYLKQIYQFLTDKNIDSYLNAVNIINIFKIIGKEDIHRSLVEELTKISAKEKFTPPKEVTMYYENYVAIENNPIPEIKEQS
modifications: left off: His tag, end not stated, kept
notes: master transcription regulator PrgX, a repressor of transcription of the prgQ operon; apo form is a dimer in solution
Q: What does the source list for B1?
A: effect on PrgX-DNA binding: shifted complexes, amount of band II (supershift) [1]: bound to the LT, producing two‐shifted complexes: band I and band II; shift of +5 probe (band I / band II) [2]: shifted the probe nearly completely to band I, with no distinct supershifted band II; shift of +10 probe (band I / band II) [3]: binding profile was similar to LT DNA wild‐type probe; lacZ expression (β-galactosidase), 5 bp insertion construct ([4]; pBK2 + 5): no effect on lacZ activity; lacZ expression (β-galactosidase), 10 bp insertion construct ([4]; pBK2 + 10): β‐galactosidase expression was repressed; fold higher K D of PrgX dimer to XBS1 site [5]: about 10 fold; fold higher K D of PrgX dimers bound to XBS2 [5]: ~1000 fold; Kd ([5]; EMSA densitometry, two-site binding polynomial, apo-PrgX (dimer) on LT DNA, mean ± SD of three independent EMSA experiments, read-out: K xbs1: K D of binding to XBS1 site): 4.04 ± 3.36 nM; effect on LT DNA shifts / RNAP binding (LT DNA (prgQ promoter)): formation of the high‐molecular‐weight RNAP‐DNA species was nearly eliminated; also recorded: hinders RNAP binding to prgQ promoter; binding to B2 m1 probe [6]: produced the band I shift, however, there was a dramatic reduction in band II; repression of P Q in vitro (P Q (prgQ promoter)): directly represses P Q; repression of P Q in vitro (P Q (prgQ promoter); listed as apo‐PrgX): repress prgQ transcription in vitro; relative affinity for XBS1 vs XBS2 / binding to probes lacking XBS1 ([7]; listed as Apo‐PrgX): binds to XBS1 with relatively higher affinity than to XBS2; relative affinity for XBS1 vs XBS2 / binding to probes lacking XBS1 ([7]; listed as apo‐PrgX): reduced binding of apo‐PrgX to DNA probes lacking XBS1 and virtually no supershifted species resembling Band II
